Results taken from US20240002531A1 (ONO PHARMACEUTICAL, published 2024).
Read-outs that look alike come from different tables or passages of the source. One block for each binder: values may come before it.

How the values were obtained:
Test in all cases: peptide ELISA, OD 655 nm
[1] = molecular target: T1, I613A peptide (HER2 603-622 with I613A) (human)
T1 construct: also called 1613A
T1 peptide: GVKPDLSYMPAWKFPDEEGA

[2] = molecular target: T2, D618A peptide (HER2 603-622 with D618A) (human)
T2 peptide: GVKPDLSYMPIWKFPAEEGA

[3] = molecular target: T3, K615A peptide (HER2 603-622 with K615A) (human)
T3 peptide: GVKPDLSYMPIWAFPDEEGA

[4] = molecular target: T4, K605A peptide (HER2 603-622 with K605A) (human)
T4 peptide: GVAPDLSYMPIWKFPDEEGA

[5] = molecular target: T5, L608A peptide (HER2 603-622 with L608A) (human)
T5 peptide: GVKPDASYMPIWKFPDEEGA

[6] = molecular target: T6, E620A peptide (HER2 603-622 with E620A) (human)
T6 peptide: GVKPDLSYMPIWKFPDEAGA

[7] = molecular target: T7, P612A peptide (HER2 603-622 with P612A) (human)
T7 peptide: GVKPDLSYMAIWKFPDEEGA

[8] = molecular target: T8, W614A peptide (HER2 603-622 with W614A) (human)
T8 peptide: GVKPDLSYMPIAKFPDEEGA

[9] = molecular target: T9, E619A peptide (HER2 603-622 with E619A) (human)
T9 peptide: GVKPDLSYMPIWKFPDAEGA

[10] = molecular target: T10, P606A peptide (HER2 603-622 with P606A) (human)
T10 peptide: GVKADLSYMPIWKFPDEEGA

[11] = molecular target: T11, G603A peptide (HER2 603-622 with G603A) (human)
T11 peptide: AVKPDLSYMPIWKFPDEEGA

[12] = molecular target: T12, P617A peptide (HER2 603-622 with P617A) (human)
T12 peptide: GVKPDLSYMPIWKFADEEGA

[13] = molecular target: T13, Y610A peptide (HER2 603-622 with Y610A) (human)
T13 peptide: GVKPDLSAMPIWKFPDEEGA

[14] = molecular target: T14, G621A peptide (HER2 603-622 with G621A) (human)
T14 peptide: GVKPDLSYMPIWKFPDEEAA

[15] = molecular target: T15, S609A peptide (HER2 603-622 with S609A) (human)
T15 peptide: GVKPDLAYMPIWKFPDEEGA

[16] = molecular target: T16, HER2_604-622C peptide (NH2-VKPDLSYMPIWKFPDEEGAC-COOH) (human)
T16 construct: KLH was added for immunisation, the peptide itself was coated in the screening ELISA
T16 peptide: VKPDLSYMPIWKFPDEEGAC

[17] = molecular target: T17, M611A peptide (HER2 603-622 with M611A) (human)
T17 peptide: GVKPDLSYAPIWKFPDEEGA

[18] = molecular target: T18, HER2 peptide p603-622 (amino acids 603 to 622 of human HER2) (human)
T18 construct: Synthetic peptide; also called wild-type HER2 peptide
T18 peptide: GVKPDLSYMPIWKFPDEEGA

[19] = molecular target: T19, F616A peptide (HER2 603-622 with F616A) (human)
T19 peptide: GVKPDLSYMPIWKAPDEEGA

[20] = molecular target: T20, D607A peptide (HER2 603-622 with D607A) (human)
T20 peptide: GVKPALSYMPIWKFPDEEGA

[21] = molecular target: T21, V604A peptide (HER2 603-622 with V604A) (human)
T21 peptide: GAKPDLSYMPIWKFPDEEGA

[22] = molecular target: T1, I613A peptide (HER2 603-622 with I613A)
[23] = molecular target: T2, D618A peptide (HER2 603-622 with D618A)
[24] = molecular target: T3, K615A peptide (HER2 603-622 with K615A)
[25] = molecular target: T4, K605A peptide (HER2 603-622 with K605A)
[26] = molecular target: T5, L608A peptide (HER2 603-622 with L608A)
[27] = molecular target: T6, E620A peptide (HER2 603-622 with E620A)
[28] = molecular target: T7, P612A peptide (HER2 603-622 with P612A)
[29] = molecular target: T8, W614A peptide (HER2 603-622 with W614A)
[30] = molecular target: T9, E619A peptide (HER2 603-622 with E619A)
[31] = molecular target: T10, P606A peptide (HER2 603-622 with P606A)
[32] = molecular target: T11, G603A peptide (HER2 603-622 with G603A)
[33] = molecular target: T12, P617A peptide (HER2 603-622 with P617A)
[34] = molecular target: T13, Y610A peptide (HER2 603-622 with Y610A)
[35] = molecular target: T14, G621A peptide (HER2 603-622 with G621A)
[36] = molecular target: T15, S609A peptide (HER2 603-622 with S609A)
[37] = molecular target: T16, HER2_604-622C peptide …
[38] = molecular target: T17, M611A peptide (HER2 603-622 with M611A)
[39] = molecular target: T18, HER2 peptide p603-622 (amino acids 603 …)
[40] = molecular target: T19, F616A peptide (HER2 603-622 with F616A)
[41] = molecular target: T20, D607A peptide (HER2 603-622 with D607A)
[42] = molecular target: T21, V604A peptide (HER2 603-622 with V604A)

- binding result [1]: binds
- binding result [2]: binds
- binding result [3]: binds
- binding result [4]: binds
- binding result [5]: binds
- binding result [6]: binds
- binding result [7]: binds
- binding result [8]: no binding (tested: 10 ug/ml)
- binding result [9]: binds
- binding result [10]: binds
- binding result [11]: binds
- binding result [12]: binds
- binding result [13]: binds
- binding result [14]: binds
- binding result [15]: binds
- binding result [16]: binds
- binding result [17]: binds
- binding result [18]: binds
- binding result [19]: binds
- binding result [20]: binds
- binding result [21]: binds
B1: H2Mab-280 antibody (antibody, mouse IgG1, kappa, V domains shown)
VH: DVKLVESGGGLVKPGGSLKLSCAASGFTFSSYSMSWVRQTPEKRLEWVAIISSGGSYTFYPDSVKGRFTISRDNAKNTLYLQMSSLKSEDTAMYHCTREAGDYWGQGTTLTVSS
VL: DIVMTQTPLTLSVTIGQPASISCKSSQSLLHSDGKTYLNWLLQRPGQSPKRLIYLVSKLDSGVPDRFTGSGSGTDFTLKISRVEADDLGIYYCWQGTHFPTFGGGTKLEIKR

- binding result [1]: binds
- binding result [2]: binds
- binding result [3]: binds
- binding result [4]: binds
- binding result [5]: binds
- binding result [6]: binds
- binding result [7]: binds
- binding result [8]: binds
- binding result [9]: binds
- binding result [10]: binds
- binding result [11]: binds
- binding result [12]: binds
- binding result [13]: binds
- binding result [14]: binds
- binding result [15]: binds
- binding result [16]: binds
- binding result [17]: binds
- binding result [18]: binds
- binding result [19]: binds
- binding result [20]: binds
- binding result [21]: binds
B2: H2Mab-279 antibody (antibody, mouse IgG3, V domains shown)
VH: EVQLVESGGGLVQPGGSLKLSCAASGFSFSSYGIFWVRQTPDKRLELVATIKSNGGRTYYPDSVKGRFTISRDNAKNTLHLQMSSLKSEDTAMYYCAREGGDYWGQGTSVTVSS
VL: DIVMTQSHKIMSTSVGDRVSISCKASQDVGTAVAWYQQKPGQSPILLIYWASTRHTGVPDRFTGSGSGTDFTLTISNVQSEDLADYFCQQYKSNPLTFGAGTKLELKR

- binding result [22]: binds
- binding result [23]: binds
- binding result [24]: binds
- binding result [25]: binds
- binding result [26]: binds
- binding result [27]: binds
- binding result [28]: binds
- binding result [29]: no binding (tested: 10 ug/ml)
- binding result [30]: binds
- binding result [31]: binds
- binding result [32]: binds
- binding result [33]: binds
- binding result [34]: binds
- binding result [35]: binds
- binding result [36]: binds
- binding result [37]: binds
- binding result [38]: binds
- binding result [39]: binds
- binding result [40]: binds
- binding result [41]: binds
- binding result [42]: binds
B3: H2Mab-283 antibody (antibody, mouse IgG1, kappa, V domains shown)
VH: EVQLVESGGGLVQPGGSLKLSCAASGFTFSSYGMSWVRQTPDKRLELVATINSNGGSTFYPDSVKGRFTISRDNAKNTLYLHMSSLKSEDTAIYYCVSPGSWFPYWGRGTLVTVSA
VL: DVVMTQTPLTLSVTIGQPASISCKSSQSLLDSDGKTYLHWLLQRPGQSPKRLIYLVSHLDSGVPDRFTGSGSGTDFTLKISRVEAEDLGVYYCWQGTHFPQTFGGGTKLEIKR

- binding result [1]: binds
- binding result [2]: binds
- binding result [3]: binds
- binding result [4]: binds
- binding result [5]: binds
- binding result [6]: binds
- binding result [7]: binds
- binding result [8]: binds
- binding result [9]: binds
- binding result [10]: binds
- binding result [11]: binds
- binding result [12]: binds
- binding result [13]: binds
- binding result [14]: binds
- binding result [15]: binds
- binding result [16]: binds
- binding result [17]: binds
- binding result [18]: binds
- binding result [19]: no binding (tested: 10 ug/ml)
- binding result [20]: binds
- binding result [21]: binds
B4: H2Mab-282 antibody (antibody, mouse IgG2a, kappa, V domains shown)
VH: QVQLQQSGAELSRPGASVKMSCKAAGYTFSSYMIHWVKQRPGQGLEWIGYINPSSGYSNYNQKFKDKATLTADKSSSTAYMQLSSLTSEDSAVYYCAFYDYDGDWGQGTLVTVSA
VL: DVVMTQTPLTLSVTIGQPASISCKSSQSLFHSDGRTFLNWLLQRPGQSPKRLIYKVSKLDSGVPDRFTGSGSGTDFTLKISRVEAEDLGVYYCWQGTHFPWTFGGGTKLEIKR
